Results from PMC2173853 (The Journal of Cell Biology, 2002).

Legend:
Assay in all cases: pull-down
[1] = target: T1, GST–Sec22p (yeast, UniProt P22214)
T1 sequence: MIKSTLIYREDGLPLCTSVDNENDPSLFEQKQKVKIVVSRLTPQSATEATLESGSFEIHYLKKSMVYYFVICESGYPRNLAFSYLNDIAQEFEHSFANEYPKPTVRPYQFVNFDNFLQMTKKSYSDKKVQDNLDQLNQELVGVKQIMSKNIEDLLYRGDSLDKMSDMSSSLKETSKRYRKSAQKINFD

[2] = target: T2, heterodimeric GST–Sed5p–His10-Sly1p complex bound to beads (S. cerevisiae, UniProt Q01590;P22213)
T2 sequence 1: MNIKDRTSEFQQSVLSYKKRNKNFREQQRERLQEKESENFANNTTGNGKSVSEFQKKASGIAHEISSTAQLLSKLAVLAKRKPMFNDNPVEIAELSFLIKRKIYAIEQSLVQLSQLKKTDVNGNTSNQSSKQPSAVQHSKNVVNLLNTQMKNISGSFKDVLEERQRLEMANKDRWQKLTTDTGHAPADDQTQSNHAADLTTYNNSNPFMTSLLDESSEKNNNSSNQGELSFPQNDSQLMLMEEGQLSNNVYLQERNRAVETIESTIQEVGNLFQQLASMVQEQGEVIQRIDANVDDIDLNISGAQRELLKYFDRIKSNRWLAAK
T2 sequence 2: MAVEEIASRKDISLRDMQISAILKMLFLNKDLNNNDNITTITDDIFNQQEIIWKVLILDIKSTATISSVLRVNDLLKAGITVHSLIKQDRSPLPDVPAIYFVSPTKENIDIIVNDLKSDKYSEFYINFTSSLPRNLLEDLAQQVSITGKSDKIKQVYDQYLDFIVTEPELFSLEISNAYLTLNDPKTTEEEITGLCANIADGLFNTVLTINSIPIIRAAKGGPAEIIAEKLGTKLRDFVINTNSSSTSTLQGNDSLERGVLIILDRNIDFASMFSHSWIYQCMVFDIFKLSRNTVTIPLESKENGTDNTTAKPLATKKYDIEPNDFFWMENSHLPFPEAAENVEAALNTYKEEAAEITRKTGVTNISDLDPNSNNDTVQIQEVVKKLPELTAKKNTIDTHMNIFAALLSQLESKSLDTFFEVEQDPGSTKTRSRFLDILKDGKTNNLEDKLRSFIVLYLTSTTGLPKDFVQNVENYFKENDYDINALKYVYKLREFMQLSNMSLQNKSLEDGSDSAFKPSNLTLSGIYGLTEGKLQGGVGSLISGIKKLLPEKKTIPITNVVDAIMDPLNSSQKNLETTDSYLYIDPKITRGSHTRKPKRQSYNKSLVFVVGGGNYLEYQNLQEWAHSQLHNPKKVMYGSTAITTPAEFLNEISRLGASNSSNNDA

[3] = target: T3, GST–Sed5p (entire cytosolic region) (S. cerevisiae, UniProt Q01590 1-324)
T3 sequence: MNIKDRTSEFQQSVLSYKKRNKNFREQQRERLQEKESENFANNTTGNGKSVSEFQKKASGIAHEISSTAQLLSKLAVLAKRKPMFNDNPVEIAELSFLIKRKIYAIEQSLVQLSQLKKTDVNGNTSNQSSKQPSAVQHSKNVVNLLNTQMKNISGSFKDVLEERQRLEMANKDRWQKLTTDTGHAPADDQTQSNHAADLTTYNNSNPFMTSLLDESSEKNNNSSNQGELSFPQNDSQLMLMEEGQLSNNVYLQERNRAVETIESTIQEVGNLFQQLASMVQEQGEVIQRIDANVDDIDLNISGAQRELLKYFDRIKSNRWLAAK

[4] = target: T4, preassembled SNARE complex of GST–Sec22p, Sed5p, Bos1p and Bet1p (yeast, UniProt P22214;Q01590;P25385;P22804)
T4 sequence 1: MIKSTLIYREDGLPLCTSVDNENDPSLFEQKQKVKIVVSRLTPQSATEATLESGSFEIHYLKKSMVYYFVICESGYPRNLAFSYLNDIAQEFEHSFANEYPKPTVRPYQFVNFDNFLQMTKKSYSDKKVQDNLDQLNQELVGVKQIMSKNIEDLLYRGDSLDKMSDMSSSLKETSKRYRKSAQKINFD
T4 sequence 2: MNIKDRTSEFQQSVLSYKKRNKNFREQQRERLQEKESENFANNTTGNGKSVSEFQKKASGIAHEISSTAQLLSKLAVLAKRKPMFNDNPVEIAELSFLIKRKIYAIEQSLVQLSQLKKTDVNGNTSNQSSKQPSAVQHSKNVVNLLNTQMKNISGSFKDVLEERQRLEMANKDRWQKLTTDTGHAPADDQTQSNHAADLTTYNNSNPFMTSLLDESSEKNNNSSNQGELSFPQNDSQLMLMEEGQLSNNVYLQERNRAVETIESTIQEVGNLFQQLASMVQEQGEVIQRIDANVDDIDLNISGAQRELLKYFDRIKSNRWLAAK
T4 sequence 3: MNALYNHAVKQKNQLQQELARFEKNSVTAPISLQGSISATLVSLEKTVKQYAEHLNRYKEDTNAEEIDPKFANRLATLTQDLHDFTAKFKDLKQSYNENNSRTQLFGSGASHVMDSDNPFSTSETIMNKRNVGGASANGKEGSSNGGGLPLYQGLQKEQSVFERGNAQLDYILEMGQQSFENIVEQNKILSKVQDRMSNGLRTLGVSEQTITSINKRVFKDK
T4 sequence 4: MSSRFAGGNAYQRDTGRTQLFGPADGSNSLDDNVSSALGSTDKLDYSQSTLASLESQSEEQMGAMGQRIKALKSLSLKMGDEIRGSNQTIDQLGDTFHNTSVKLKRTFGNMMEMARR

[5] = target: preassembled SNARE complex of GST–Sec22p, Sed5p, Bos1p and Bet1p with Sly1p (yeast | S. cerevisiae, UniProt P22214;Q01590;P25385;P22804;P22213)

B1: His6-Bos1p lacking the transmembrane (TM) (domain or fragment)
chain: MNALYNHAVKQKNQLQQELARFEKNSVTAPISLQGSISATLVSLEKTVKQYAEHLNRYKEDTNAEEIDPKFANRLATLTQDLHDFTAKFKDLKQSYNENNSRTQLFGSGASHVMDSDNPFSTSETIMNKRNVGGASANGKEGSSNGGGLPLYQGLQKEQSVFERGNAQLDYILEMGQQSFENIVEQNKILSKVQDRMSNGLRTLGVSEQTITSINKRVFKDK
- stoichiometry of Sly1p–Sed5p–Bos1p–Sec22p–Bet1p in the isolated complex [1]: 0.8 molar ratio (GST–Sec22p = 1.4)
- stoichiometry N [2]: 1.4 per Sed5p
- stoichiometry N [3]: 1.3 per Sed5p

B2: His6-Sec17p (full length) (natural protein)
chain: MSDPVELLKRAEKKGVPSSGFMKLFSGSDSYKFEEAADLCVQAATIYRLRKELNLAGDSFLKAADYQKKAGNEDEAGNTYVEAYKCFKSGGNSVNAVDSLENAIQIFTHRGQFRRGANFKFELGEILENDLHDYAKAIDCYELAGEWYAQDQSVALSNKCFIKCADLKALDGQYIEASDIYSKLIKSSMGNRLSQWSLKDYFLKKGLCQLAATDAVAAARTLQEGQSEDPNFADSRESNFLKSLIDAVNEGDSEQLSEHCKEFDNFMRLDKWKITILNKIKESIQQQEDDLL
- stoichiometry N [4]: 3.3 Sec17p per Sed5p
- stoichiometry N [5]: 2.7 Sec17p per Sed5p

B3: His6-Bet1p lacking the COOH-terminal membrane anchor (domain or fragment)
chain: MSSRFAGGNAYQRDTGRTQLFGPADGSNSLDDNVSSALGSTDKLDYSQSTLASLESQSEEQMGAMGQRIKALKSLSLKMGDEIRGSNQTIDQLGDTFHNTSVKLKRTFGNMMEMARR
- stoichiometry of Sly1p–Sed5p–Bos1p–Sec22p–Bet1p in the isolated complex [1]: 1.3 molar ratio (GST–Sec22p = 1.4)
- stoichiometry N [2]: 1.3 per Sed5p
- stoichiometry N [3]: 1.5 per Sed5p
